Source: US20090170166A1

Target: T1, recombinant uracil-DNA-glycosylase inhibitor (rUgi), P14739
T1 chain: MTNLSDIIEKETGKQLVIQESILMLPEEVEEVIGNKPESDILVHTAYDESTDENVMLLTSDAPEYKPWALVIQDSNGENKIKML

B1: uracil-DNA-glycosylase (UDG) (protein)
chain: ANELTWHDVLAEEKQQPYFLNTLQTVASERQSGVTIYPPQKDVFNAFRFTELGDVKVVILGQDPYHGPGQAHGLAFSVRPGIAIPPSLLNMYKELENTIPGFTRPNHGYLESWARQGVLLLNTVLTVRAGQAHSHASLGWETFTDKVISLINQHREGVVFLLWGSHAQKKGAIIDKQRHHVLKAPHPSPLSAHRGFFGCNHFVLANQWLEQRGETPIDWMPVLPAESE
digestion of DNA-dUTP by UDG 1/35 (agarose gel), without and after 10 min at 90 C: the two dilutions of Ugi indeed inhibit the digestion of DNA by UDG (lanes D and G); after a treatment of 10 minutes at 90° C., the Ugi remains active because it still inhibits the UDG (lanes J and M) | digestion of DNA-dUTP by UDG 1/35, 60 min at 37 C (agarose gel): the two dilutions of Ugi indeed inhibit UDG (lanes D and G) | digestion of DNA-dUTP by UDG (agarose gel), UDG 1/25: at the highest concentration of UDG, the UDG activity may be inhibited by Ugi at 1/20 000 but not at 1/30 000 | digestion of DNA-dUTP by UDG (agarose gel), UDG 1/50: at the lowest concentration of UDG, the UDG activity is inhibited both by Ugi at 1/20 000 and at 1/30 000
